Experimental data: patent US20170101477A1 (Regeneron, published 2017)

T1: Mycx2-hLepR(ecto)-GPI anchored, on HEK293/hLEPR-GPI cells (human, UniProt P48357 22-839, GPI anchor at the C-terminus)
T1 construct: also called HEK293/Mycx2-hLepR(ecto)-GPI; not shown: N-terminal myc-myc tag
T1 sequence: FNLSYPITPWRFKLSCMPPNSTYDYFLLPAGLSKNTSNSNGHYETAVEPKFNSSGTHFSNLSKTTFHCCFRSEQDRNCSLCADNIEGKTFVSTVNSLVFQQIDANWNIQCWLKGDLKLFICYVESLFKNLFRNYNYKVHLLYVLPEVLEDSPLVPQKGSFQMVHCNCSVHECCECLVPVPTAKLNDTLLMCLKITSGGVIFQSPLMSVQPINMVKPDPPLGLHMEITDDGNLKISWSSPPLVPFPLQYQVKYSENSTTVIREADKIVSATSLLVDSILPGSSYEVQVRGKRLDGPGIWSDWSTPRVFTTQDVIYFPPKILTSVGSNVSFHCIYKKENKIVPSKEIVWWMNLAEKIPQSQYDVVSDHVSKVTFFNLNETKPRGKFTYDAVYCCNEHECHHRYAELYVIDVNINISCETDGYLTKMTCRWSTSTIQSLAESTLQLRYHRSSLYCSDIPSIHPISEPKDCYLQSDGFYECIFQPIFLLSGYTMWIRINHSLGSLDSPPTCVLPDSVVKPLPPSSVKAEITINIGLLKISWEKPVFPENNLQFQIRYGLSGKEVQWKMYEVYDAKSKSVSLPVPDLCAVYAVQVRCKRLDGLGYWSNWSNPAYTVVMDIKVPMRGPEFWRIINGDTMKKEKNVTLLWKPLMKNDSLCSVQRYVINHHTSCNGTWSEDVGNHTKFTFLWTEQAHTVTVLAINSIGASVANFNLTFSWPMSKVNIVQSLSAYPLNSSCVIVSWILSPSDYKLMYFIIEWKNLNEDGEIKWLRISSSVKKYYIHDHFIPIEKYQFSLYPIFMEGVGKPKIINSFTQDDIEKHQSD

T2: full length human LEPR (amino acids 1-1165 of P48357, Isoform B), on cells (human, UniProt P48357 22-1165)
T2 construct: also called hLEPR-FL; HEK293/Stat3-luc/hLEPR-FL
T2 sequence: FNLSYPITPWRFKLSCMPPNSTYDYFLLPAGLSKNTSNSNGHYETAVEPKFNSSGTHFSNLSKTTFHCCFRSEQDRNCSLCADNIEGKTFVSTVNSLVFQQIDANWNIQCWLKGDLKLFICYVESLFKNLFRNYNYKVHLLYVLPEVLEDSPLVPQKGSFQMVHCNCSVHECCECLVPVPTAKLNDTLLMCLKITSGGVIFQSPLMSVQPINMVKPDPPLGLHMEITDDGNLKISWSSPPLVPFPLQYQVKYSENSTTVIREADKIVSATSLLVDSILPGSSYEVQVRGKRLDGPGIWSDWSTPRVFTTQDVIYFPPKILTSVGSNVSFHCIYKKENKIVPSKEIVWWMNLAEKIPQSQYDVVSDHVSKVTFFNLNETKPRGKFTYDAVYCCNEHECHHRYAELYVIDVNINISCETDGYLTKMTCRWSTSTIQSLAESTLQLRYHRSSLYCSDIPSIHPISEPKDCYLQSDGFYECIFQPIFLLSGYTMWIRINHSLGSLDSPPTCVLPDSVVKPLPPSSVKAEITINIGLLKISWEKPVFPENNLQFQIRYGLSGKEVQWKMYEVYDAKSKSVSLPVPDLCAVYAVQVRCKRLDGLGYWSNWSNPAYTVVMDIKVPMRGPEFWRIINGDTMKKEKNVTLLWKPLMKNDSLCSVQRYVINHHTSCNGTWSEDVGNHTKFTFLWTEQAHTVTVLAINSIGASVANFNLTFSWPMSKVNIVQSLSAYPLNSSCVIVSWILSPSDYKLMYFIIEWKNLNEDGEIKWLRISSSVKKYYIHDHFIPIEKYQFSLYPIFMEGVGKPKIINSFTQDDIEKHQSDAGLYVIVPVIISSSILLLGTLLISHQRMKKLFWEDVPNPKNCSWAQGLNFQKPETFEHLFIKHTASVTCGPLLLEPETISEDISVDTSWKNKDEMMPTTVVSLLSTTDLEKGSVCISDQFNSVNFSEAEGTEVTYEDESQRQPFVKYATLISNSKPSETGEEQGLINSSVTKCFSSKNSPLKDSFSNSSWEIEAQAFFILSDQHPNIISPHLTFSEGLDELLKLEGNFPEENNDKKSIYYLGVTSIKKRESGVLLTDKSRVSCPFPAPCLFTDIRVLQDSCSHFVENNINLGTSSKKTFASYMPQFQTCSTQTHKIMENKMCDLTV

T3: human LEPR CRH1 (D1,D2,D3)-MMH (human, UniProt P48357 22-427)
T3 construct: domain: CRH1-Ig (D1,D2,D3); Limits on human LEPR cannot be told from the printed numbers; also called CRH1-Ig (D1, D2, D3); not shown: C-terminal myc-myc hexahistidine tag (amino acids 279-306 of the construct)
T3 sequence (looked up): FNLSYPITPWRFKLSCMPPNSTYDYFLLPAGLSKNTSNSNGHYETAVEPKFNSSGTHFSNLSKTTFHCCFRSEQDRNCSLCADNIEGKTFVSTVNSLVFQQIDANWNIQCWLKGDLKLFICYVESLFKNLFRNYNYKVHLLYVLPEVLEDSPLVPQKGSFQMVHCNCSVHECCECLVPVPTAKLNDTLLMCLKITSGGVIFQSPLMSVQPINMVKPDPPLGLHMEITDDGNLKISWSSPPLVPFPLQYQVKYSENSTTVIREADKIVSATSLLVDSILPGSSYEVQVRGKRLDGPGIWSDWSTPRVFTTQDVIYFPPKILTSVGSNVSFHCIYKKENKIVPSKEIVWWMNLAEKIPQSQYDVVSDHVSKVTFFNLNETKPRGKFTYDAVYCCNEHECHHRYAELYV


Experiments:
[1] = target: T1, Mycx2-hLepR(ecto)-GPI anchored, on …; test: FACS, 10 nM Ab, HEK293/hLEPR-GPI, 1 uM Leptin
Method: (§1) For the FACS analysis, HEK293 parental cells and HEK293/hLEPR-GPI cells were dissociated and plated onto 96-well v-bottom plates at 5×10⁵ cells/well in PBS containing 2% FBS (FACS buffer). […] Cells were subsequently fixed using BD CytoFix™ (Becton Dickinson, #554655), filtered, and analyzed on a HyperCyt Flow Cytometer (Beckman Coulter). Unstained and secondary antibody alone controls were also tested for all cell lines. The results were analyzed using ForeCyt (IntelliCyt) and FlowJo version 10 software to determine the geometric means of fluorescence for viable cells. The geometric mean of fluorescence for each sample was then normalized to the geometric mean of unstained cells to obtain relative binding per condition referred to as “binding ratios”, and these binding ratios were recorded for each antibody tested.

[2] = target: T1, Mycx2-hLepR(ecto)-GPI anchored, on …; test: FACS, 10 nM Ab, HEK293/hLEPR-GPI, no added Leptin
Method: as §1

[3] = target: T4, human LEPR extracellular domain expressed with a C-terminal myc-myc-hexahistidine tag (hLEPR.mmh) (human, UniProt P48357 22-839); test: SPR, mAb over preformed hLEPR-MMH:human Leptin complex
T4 construct: also called human LEPR-MMH; monomeric human LEPR
Method: The entire study was performed in 10 mM HEPES pH 7.4, 150 mM NaCl, 3 mM EDTA, and 0.05% v/v Surfactant Tween-20 (HBS-ET running buffer) at 25° C.

[4] = target: T1, Mycx2-hLepR(ecto)-GPI anchored, on …; test: FACS, 70 nM Ab, HEK293/hLEPR-GPI
[5] = target: T2, full length human LEPR (amino acids …); test: FACS, 70 nM Ab, HEK293/Stat3-luc/hLEPR-FL
[6] = target: T3, human LEPR CRH1 (D1,D2,D3)-MMH; test: Luminex, myc-captured LEPR protein
Method: Aliquots of microspheres with immobilized anti-myc monoclonal antibodies, prepared as described above, were added individually to 1 mL of the each of these protein supernatants. The microspheres were gently mixed, incubated for two hours at 25° C., washed twice with 1 mL of DBPS, centrifuged to remove the supernatant and finally resuspended in 1 mL of DPBS buffer.
From this mixed pool, 75 μL of microspheres were plated per well on a 96 well filter plate (Millipore, Cat. No: MSBVN1250) and mixed with 25 μL of individual anti-human LEPR monoclonal antibodies (0.5 or 5 μg/mL), incubated for two hours at 25° C. and then washed twice with 200 μL of DPBS with 0.05% Tween 20 (washing buffer). […] The Median Fluorescence intensity (MFI) of the microspheres was measured in a Luminex Analyzer.

Binder	Binding Ratio [1]	Binding Ratio [2]	200 nM mAb Bound (RU) [3]	Binding Ratio [4]	Binding Ratio [5]	Luminex MFI [6]
H4H16650P2 (antibody, human IgG4, V domains shown, H4H prefix means human IgG4 Fc; Classed as agonist) VH: QVQLVESGGGVVQPGKSLRLSCVASGFTFSSDAMYWVRQAPGKGLEWVAVIYYDGNYQYYEDSVKGRFTISRDNSQNTLDLQMNSLRVDDTAVYFCARLNWDYWYLDLWGRGTLVTVSS VL: not shown	3120 fold	2420 fold	81 RU	707 fold	42 fold	
H4H16679P2 (antibody, human IgG4, V domains shown, human IgG4 Fc; Classed as agonist) VH: QVQLVESGGGVVQPGRSLRLSCTASGFTFSSYAMYWVRQAPGKGLEWVSVIYYDGSYKYYADSVKGRFTISRDNSKNTLYLQMDSLRAEDTAVYYCASYNWNYWYFDFWGRGTLVTVSS VL: not shown	2220 fold	2060 fold	90 RU	1080 fold	51 fold	
H4H17321P2 (antibody, human IgG4, V domains shown, human IgG4 Fc; Classed as agonist) VH: QVQLVESGGGVVQPGRSLRLSCEASGFSSSDNAMYWVRQAPGKGLEWVSVIYHDGSYKYYEDSVKGRFTIARDNSKNTLYLQMNSLRAEDTAVYYCARYNWNHWYFDVWGRGTLVTVSS VL: not shown				1130 fold	46 fold	
H4H18446P2 (antibody, human IgG4, V domains shown, human IgG4 Fc) VH: EVQLVESGGGLVQPGGSLRLSCAASGFTFSNYGMTWVRQAPGKGLEWVSAITGGGGSTYYSNSVKGRFTISRDNSKNTVYLRMNSVRAEDTAVYYCAKYKWNFVDDWGQGTTVTVSS VL: not shown						205 MFI
H4H18449P2 (antibody, human IgG4, V domains shown, human IgG4 Fc; summary lists 74/66) VH: EVQLVESGGGLVQPGGSLRLSCVASGFTFNKYDMHWVRQTTGKGLEWVSGIDTDGDTYYPGSVKGRFTISRENAENSLYLQMNGLRVGDTAVYYCARWPWSGFYGAFDIWGQGTMVTVSS VL: not shown	3110 fold	3370 fold				

Next, values leading:

Binding Ratio [1]	Binding Ratio [2]	200 nM mAb Bound (RU) [3]	Binding Ratio [4]	Binding Ratio [5]	Luminex MFI [6]	Binder
2410 fold	1490 fold					H4H18438P2 (antibody, human IgG4, V domains shown, human IgG4 Fc; Classed as potentiator) VH: QVQLVESGGGVVQPGRSLRLSCAASGFSFNTYGMHWVRQAPGKGLEWVTIIWYDGSIKYYADSVKGRFTISRDNSKNTLYLQMNSLRAEDTAVYYCARGGYSGYLYFDYWGQGTLVTVSS VL: not shown
		92 RU	1130 fold	47 fold		H4H17319P2 (antibody, human IgG4, V domains shown, human IgG4 Fc; Classed as agonist) VH: QVQLVESGGSVVQPGRSLRLSCAASGFTFSTYAMYWVRQTPGKGLEWVAVLYSDGSNKYYIDSVKGRFTISRDTSTNTLYLQMSSLRADDSALYYCARLNWDYWYFDLWGRGTLVTVSS VL: not shown
2490 fold	2020 fold					H4H18445P2 (antibody, human IgG4, V domains shown, human IgG4 Fc) VH: QVQLQESGPGLVKPSQTLSLTCTVSGGSISSGGDYWSWIRQLPGKGLEWIGYIYYSGSAYYNPSLKSRGTISIDTSKNQFSLKLTSVTAADTAVYFCVKLRFLEWFLGGWFGPWGQGTLVTVSS VL: not shown
2600 fold	1840 fold					H4H18417P2 (antibody, human IgG4, V domains shown, human IgG4 Fc; Classed as potentiator) VH: QVQLVESGGGVVQPGRSLRLSCAASGFTFSTYGMHWVRQAPGKGLEWVSVISYDESNKYYADSVKGRFTISRDNSKNALYLQMNSLRNEDTAVYYCARDRPFGLVTGWFDPWGQGTLVTVSS VL: not shown
